Results reported in patent US20260167699A1 (Chugai, published 2026).
Substitutions are numbered along the chain they refer to.

T1: FcγRIIa(H) (human, UniProt P12318 34-217)
T1 construct: extracellular domain; also called FcγRIIa H type; 2aH
T1 sequence: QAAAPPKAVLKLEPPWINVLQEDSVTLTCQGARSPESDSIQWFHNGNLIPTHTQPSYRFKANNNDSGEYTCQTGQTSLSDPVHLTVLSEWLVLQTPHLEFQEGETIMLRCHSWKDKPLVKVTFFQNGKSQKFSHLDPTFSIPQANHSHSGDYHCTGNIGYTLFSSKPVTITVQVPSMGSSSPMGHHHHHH

T2: FcγRIIa(R) (human, UniProt P12318 34-217)
T2 construct: extracellular domain; also called FcγRIIa R type; 2aR
T2 sequence: T1 sequence with H134R

T3: FcγRIIb (human, UniProt P31994 43-217)
T3 construct: extracellular domain; also called 2b
T3 sequence: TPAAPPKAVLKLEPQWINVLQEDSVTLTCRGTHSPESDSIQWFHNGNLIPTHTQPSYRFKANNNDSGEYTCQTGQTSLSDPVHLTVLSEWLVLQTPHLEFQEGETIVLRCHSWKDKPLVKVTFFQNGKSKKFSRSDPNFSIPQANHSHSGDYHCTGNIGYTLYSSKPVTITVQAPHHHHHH

B1: GpH7-A5/GpH7-B3 variant E269_14T/GpL16-k0 (antibody, human IgG1, kappa)
heavy 1: not shown
heavy 2: not shown
light: DIVMTQSPLSLPVTPGEPASISCQASESLVHSNRNTYLHWYLQKPGQSPQLLIYKVSNRFSGVPDRFSGSGSGTDFTLKISRVEAEDVGVYYCSQNTHVPPTFGQGTKVEIERTVAAPSVFIFPPSDEQLKSGTASVVCLLNNFYPREAKVQWKVDNALQSGNSQESVTEQDSKDSTYSLSSTLTLSKADYEKHKVYACEVTHQGLSSPVTKSFNRGEC
notes: heterodimerized IgG1, one H chain mutated; also called He Ab
B2: GpH7-A5/GpH7-B3 variant L234_10E/GpL16-k0 (antibody, human IgG1, kappa)
heavy 1: not shown
heavy 2: not shown
light: B1 light
notes: as for B1
B3: GpH7-A5/GpH7-B3 variant G236_09D/GpL16-k0 (antibody, human IgG1, kappa)
heavy 1: not shown
heavy 2: not shown
light: B1 light
notes: as for B1
B4: GpH7-A5/GpH7-B3 variant L234_05P/GpL16-k0 (antibody, human IgG1, kappa)
heavy 1: not shown
heavy 2: not shown
light: B1 light
notes: as for B1
B5: GpH7-A5/GpH7-B3 variant G236_20W/GpL16-k0 (antibody, human IgG1, kappa)
heavy 1: not shown
heavy 2: not shown
light: B1 light
notes: as for B1
B6: GpH7-A5/GpH7-B3 variant H268_13S/GpL16-k0 (antibody, human IgG1, kappa)
heavy 1: not shown
heavy 2: not shown
light: B1 light
notes: as for B1
B7: GpH7-A5/GpH7-B3 variant H268_19Q/GpL16-k0 (antibody, human IgG1, kappa)
heavy 1: not shown
heavy 2: not shown
light: B1 light
notes: as for B1
B8: GpH7-A5/GpH7-B3 variant H268_01G/GpL16-k0 (antibody, human IgG1, kappa)
heavy 1: not shown
heavy 2: not shown
light: B1 light
notes: as for B1
B9: GpH7-A5/GpH7-B3 variant H268_12R/GpL16-k0 (antibody, human IgG1, kappa)
heavy 1: not shown
heavy 2: not shown
light: B1 light
notes: as for B1
B10: GpH7-A5/GpH7-B3 variant H268_04F/GpL16-k0 (antibody, human IgG1, kappa)
heavy 1: not shown
heavy 2: not shown
light: B1 light
notes: as for B1
B11: GpH7-A5/GpH7-B3 variant H268_03V/GpL16-k0 (antibody, human IgG1, kappa)
heavy 1: not shown
heavy 2: not shown
light: B1 light
notes: as for B1
B12: GpH7-A5/GpH7-B3 variant H268_02A/GpL16-k0 (antibody, human IgG1, kappa)
heavy 1: not shown
heavy 2: not shown
light: B1 light
notes: as for B1
B13: GpH7-A5/GpH7-B3 variant L234_04F/GpL16-k0 (antibody, human IgG1, kappa)
heavy 1: not shown
heavy 2: not shown
light: B1 light
notes: as for B1
B14: GpH7-A5/GpH7-B3 variant H268_18N/GpL16-k0 (antibody, human IgG1, kappa)
heavy 1: not shown
heavy 2: not shown
light: B1 light
notes: as for B1
B15: GpH7-A5/GpH7-B3 variant G236_02A/GpL16-k0 (antibody, human IgG1, kappa)
heavy 1: not shown
heavy 2: not shown
light: B1 light
notes: as for B1
B16: GpH7-A5/GpH7-B3 variant H268_06M/GpL16-k0 (antibody, human IgG1, kappa)
heavy 1: not shown
heavy 2: not shown
light: B1 light
notes: as for B1
B17: GpH7-A5/GpH7-B3 variant H268_08L/GpL16-k0 (antibody, human IgG1, kappa)
heavy 1: not shown
heavy 2: not shown
light: B1 light
notes: as for B1
B18: GpH7-A5/GpH7-B3 variant L234_06M/GpL16-k0 (antibody, human IgG1, kappa)
heavy 1: not shown
heavy 2: not shown
light: B1 light
notes: as for B1
B19: GpH7-A5/GpH7-B3 variant L234_02A/GpL16-k0 (antibody, human IgG1, kappa)
heavy 1: not shown
heavy 2: not shown
light: B1 light
notes: as for B1
B20: GpH7-A5/GpH7-B3 variant L234_09D/GpL16-k0 (antibody, human IgG1, kappa)
heavy 1: not shown
heavy 2: not shown
light: B1 light
notes: as for B1
B21: GpH7-A5/GpH7-B3 variant L234_07I/GpL16-k0 (antibody, human IgG1, kappa)
heavy 1: not shown
heavy 2: not shown
light: B1 light
notes: as for B1
B22: GpH7-A5/GpH7-B3 variant H268_10E/GpL16-k0 (antibody, human IgG1, kappa)
heavy 1: not shown
heavy 2: not shown
light: B1 light
notes: as for B1
B23: GpH7-A5/GpH7-B3 variant L234_01G/GpL16-k0 (antibody, human IgG1, kappa)
heavy 1: not shown
heavy 2: not shown
light: B1 light
notes: as for B1
B24: GpH7-A5/GpH7-B3 variant L234_16H/GpL16-k0 (antibody, human IgG1, kappa)
heavy 1: not shown
heavy 2: not shown
light: B1 light
notes: as for B1
B25: GpH7-A5/GpH7-B3 variant L234_03V/GpL16-k0 (antibody, human IgG1, kappa)
heavy 1: not shown
heavy 2: not shown
light: B1 light
notes: as for B1
B26: GpH7-A5/GpH7-B3 variant L234_13S/GpL16-k0 (antibody, human IgG1, kappa)
heavy 1: not shown
heavy 2: not shown
light: B1 light
notes: as for B1
B27: GpH7-A5/GpH7-B3 variant H268_07I/GpL16-k0 (antibody, human IgG1, kappa)
heavy 1: not shown
heavy 2: not shown
light: B1 light
notes: as for B1
B28: GpH7-A5/GpH7-B3 variant H268_20W/GpL16-k0 (antibody, human IgG1, kappa)
heavy 1: not shown
heavy 2: not shown
light: B1 light
notes: as for B1
B29: GpH7-A5/GpH7-B3 variant H268_09D/GpL16-k0 (antibody, human IgG1, kappa)
heavy 1: not shown
heavy 2: not shown
light: B1 light
notes: as for B1
B30: GpH7-A5/GpH7-B3 variant H268_14T/GpL16-k0 (antibody, human IgG1, kappa)
heavy 1: not shown
heavy 2: not shown
light: B1 light
notes: as for B1
B31: GpH7-A5/GpH7-B3 variant H268_11K/GpL16-k0 (antibody, human IgG1, kappa)
heavy 1: not shown
heavy 2: not shown
light: B1 light
notes: as for B1
B32: GpH7-A5/GpH7-B3 variant H268_15Y/GpL16-k0 (antibody, human IgG1, kappa)
heavy 1: not shown
heavy 2: not shown
light: B1 light
notes: as for B1
B33: GpH7-A5/GpH7-B3 variant G236_10E/GpL16-k0 (antibody, human IgG1, kappa)
heavy 1: not shown
heavy 2: not shown
light: B1 light
notes: as for B1
B34: GpH7-A5/GpH7-B3 variant L234_15Y/GpL16-k0 (antibody, human IgG1, kappa)
heavy 1: not shown
heavy 2: not shown
light: B1 light
notes: as for B1
B35: GpH7-A5/GpH7-B3 variant L234_14T/GpL16-k0 (antibody, human IgG1, kappa)
heavy 1: not shown
heavy 2: not shown
light: B1 light
notes: as for B1

These binders were tested against T1, FcγRIIa(H) (assay: SPR (Biacore), binding relative to GpH7-A5/GpH7-B3/GpL16-k0 x100;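 also: surface plasmon resonance at 25 °C, antibody captured on a sensor chip and soluble FcγR flowed over it in HBS-EP+ running buffer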).
Description: (§1) The antibody of interest was analyzed for its interaction with FcγR using a BiaCore™ T100, BiaCore™ A100, or BiaCore™ 4000 surface plasmon resonance system (GE Healthcare Japan Corp.). The running buffer used was HBS-EP+ (GE Healthcare Japan Corp.). The assay temperature was set to 25° C. The sensor chips used were: a chip prepared by immobilizing antigenic peptides onto Series S Sensor Chip CM5 (GE Healthcare Japan Corp.) by the amine coupling method; a chip prepared by immobilizing antigenic peptides biotinylated in advance onto Series S Sensor Chip SA (certified) (GE Healthcare Japan Corp.) through their interaction; a chip prepared by immobilizing protein L (ACTIGEN, BioVision, Inc.) onto Series S Sensor Chip CM5 (GE Healthcare Japan Corp.); and a chip prepared by immobilizing protein A/G (Thermo Fisher Scientific K.K.) onto Series S Sensor Chip CM5 (GE Healthcare Japan Corp.). The antibody of interest was captured onto any of these chips and allowed to interact with FcγR diluted with a running buffer. The antibody captured on the chip was washed off through the reaction of 10 mM glycine-HCl (pH 1.5) to regenerate the chip, which was repetitively used.

| He/Con 2aH | Binder |
| --- | --- |
| 70.3% | B1 |
| 98.2% | B2 |
| 93.5% | B3 |
| 104% | B4 |
| 153% | B5 |
| 114% | B6 |
| 104% | B7 |
| 100% | B8 |
| 90.9% | B9 |
| 112% | B10 |
| 100% | B11 |
| 115% | B12 |
| 133% | B13 |
| 113% | B14 |
| 145% | B15 |
| 85.8% | B16 |
| 85.9% | B17 |
| 96.4% | B18 |

| He/Con 2aH | Binder |
| --- | --- |
| 90.1% | B19 |
| 100% | B20 |
| 101% | B21 |
| 126% | B22 |
| 84.1% | B23 |
| 97.1% | B24 |
| 94.4% | B25 |
| 89.4% | B26 |
| 91.2% | B27 |
| 96.9% | B28 |
| 134% | B29 |
| 93.5% | B30 |
| 89.8% | B31 |
| 113% | B32 |
| 116% | B33 |
| 134% | B34 |
| 86.8% | B35 |

Each binder was assayed against T4, FcγRIa (human, UniProt P12314 16-292) in the same assay as above.
T4 construct: extracellular domain; also called 1a
T4 sequence (P12314 other isoform, or with tags, fused parts or gaps): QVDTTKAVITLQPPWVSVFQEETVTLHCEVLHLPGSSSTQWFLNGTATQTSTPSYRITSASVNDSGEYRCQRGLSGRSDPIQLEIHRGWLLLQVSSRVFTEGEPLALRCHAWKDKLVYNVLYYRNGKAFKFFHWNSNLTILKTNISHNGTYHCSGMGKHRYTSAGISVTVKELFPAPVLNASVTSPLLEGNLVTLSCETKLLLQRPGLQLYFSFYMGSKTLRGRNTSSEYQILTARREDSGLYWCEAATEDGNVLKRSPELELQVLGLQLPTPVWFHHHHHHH
Description: as §1

| He/Con 1a | Binder |
| --- | --- |
| 102% | B1 |
| 104% | B2 |
| 95.5% | B3 |
| 103% | B4 |
| 104% | B5 |
| 106% | B6 |
| 104% | B7 |
| 104% | B8 |
| 103% | B9 |
| 103% | B10 |
| 103% | B11 |
| 105% | B12 |
| 104% | B13 |
| 104% | B14 |
| 99.1% | B15 |
| 101% | B16 |
| 104% | B17 |
| 107% | B18 |

| He/Con 1a | Binder |
| --- | --- |
| 101% | B19 |
| 101% | B20 |
| 106% | B21 |
| 107% | B22 |
| 99.2% | B23 |
| 97% | B24 |
| 108% | B25 |
| 100% | B26 |
| 104% | B27 |
| 103% | B28 |
| 106% | B29 |
| 108% | B30 |
| 102% | B31 |
| 104% | B32 |
| 92.6% | B33 |
| 103% | B34 |
| 102% | B35 |

These binders were tested against T2, FcγRIIa(R) in the same assay as above.
Description: as §1

| He/Con 2aR | Binder |
| --- | --- |
| 71% | B1 |
| 130% | B2 |
| 105% | B3 |
| 104% | B4 |
| 77.3% | B5 |
| 137% | B6 |
| 128% | B7 |
| 134% | B8 |
| 113% | B9 |
| 105% | B10 |
| 117% | B11 |
| 143% | B12 |
| 121% | B13 |
| 138% | B14 |
| 145% | B15 |
| 67.2% | B16 |
| 91.4% | B17 |
| 109% | B18 |

| He/Con 2aR | Binder |
| --- | --- |
| 92.5% | B19 |
| 142% | B20 |
| 110% | B21 |
| 159% | B22 |
| 72.4% | B23 |
| 83.5% | B24 |
| 99% | B25 |
| 82.6% | B26 |
| 102% | B27 |
| 122% | B28 |
| 161% | B29 |
| 100% | B30 |
| 108% | B31 |
| 118% | B32 |
| 124% | B33 |
| 113% | B34 |
| 90% | B35 |

The binders below were run against T3, FcγRIIb in the same assay as above.
Description: as §1

| He/Con 2b | Binder |
| --- | --- |
| 53.2% | B1 |
| 134% | B2 |
| 174% | B3 |
| 83.2% | B4 |
| 60.7% | B5 |
| 168% | B6 |
| 140% | B7 |
| 151% | B8 |
| 94.3% | B9 |
| 94.2% | B10 |
| 120% | B11 |
| 175% | B12 |
| 114% | B13 |
| 164% | B14 |
| 101% | B15 |
| 69% | B16 |
| 71.2% | B17 |
| 89.6% | B18 |

| He/Con 2b | Binder |
| --- | --- |
| 74.1% | B19 |
| 172% | B20 |
| 92.3% | B21 |
| 242% | B22 |
| 57.8% | B23 |
| 67.8% | B24 |
| 83.4% | B25 |
| 67.7% | B26 |
| 93.4% | B27 |
| 117% | B28 |
| 251% | B29 |
| 90.3% | B30 |
| 87.2% | B31 |
| 112% | B32 |
| 115% | B33 |
| 110% | B34 |
| 71.4% | B35 |
